Measurements published in US20130130320, “ENZYMES” (published 2013).

T1: TGK (TgoT Y409G E664K) (Thermococcus gorgonarius, UniProt P56689 SEQ:1-773, Y409G,E664K)
T1 sequence: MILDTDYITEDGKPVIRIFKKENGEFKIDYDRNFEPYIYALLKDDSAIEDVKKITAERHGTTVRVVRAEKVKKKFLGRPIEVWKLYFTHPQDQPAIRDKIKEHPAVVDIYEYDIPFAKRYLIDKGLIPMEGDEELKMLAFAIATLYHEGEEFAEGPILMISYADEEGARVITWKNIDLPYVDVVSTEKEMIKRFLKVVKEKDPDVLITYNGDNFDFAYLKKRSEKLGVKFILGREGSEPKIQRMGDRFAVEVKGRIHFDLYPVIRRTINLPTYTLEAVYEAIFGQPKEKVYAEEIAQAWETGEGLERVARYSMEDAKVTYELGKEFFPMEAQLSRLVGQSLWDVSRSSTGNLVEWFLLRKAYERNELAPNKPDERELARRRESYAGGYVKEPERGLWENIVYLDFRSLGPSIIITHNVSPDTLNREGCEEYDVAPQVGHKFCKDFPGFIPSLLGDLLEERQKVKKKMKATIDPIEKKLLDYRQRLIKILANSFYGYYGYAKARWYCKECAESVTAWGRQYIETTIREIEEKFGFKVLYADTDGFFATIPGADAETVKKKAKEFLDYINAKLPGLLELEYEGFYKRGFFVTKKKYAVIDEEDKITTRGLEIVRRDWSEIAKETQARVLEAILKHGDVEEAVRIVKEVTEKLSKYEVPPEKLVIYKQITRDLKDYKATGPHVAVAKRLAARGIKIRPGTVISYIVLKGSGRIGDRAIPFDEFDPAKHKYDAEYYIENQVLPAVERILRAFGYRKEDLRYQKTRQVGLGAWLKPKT


Legend:
[1] = tested on: Tat (HIV-1?); test: competition
[2] = molecular target: T1, TGK (TgoT Y409G E664K); test: EMSA; second gate mutation vs parental E664; individual mutants and Kd values not stated; Thermopol, 1 mM EDTA; details: label: 5'-FITC primer, 5'-biotin template, 5' template overhang
Description: The reactions were mixed, heated to 94° C. for 30 sec and cooled at 0.1° C./sec to 4° C. before loading onto precooled 6% TBE gel (Invitrogen) and run for 1 h at 100V in precooled 1×TBE. Bands were quantified using a Typhoon Trio and ImageQuant and the shift fitted to y=(Bmax*x)/(Kd+x) using MatLab (The MathWorks Ltd).

| Molecule | IC50 ([1]; IC50 of HNA aptamer T5S8-7 displacing Tat from immobilised miniTAR (CI95 1.3-2.8)) | IC50 ([1]; IC50 of RNA aptamer R06 displacing Tat from immobilised miniTAR (CI95 166-675)) | binding result [2] |
| --- | --- | --- | --- |
| miniTAR RNA | 1.9 nM | 313 nM |  |
| K0 DNA primer / TempK4 (dsDNA) DNA 1: GCACGGCAGCACGTG DNA 2: ACTGCGATGACTGTACTCGTCTAGTAGCACTGCACGTGCTGCCGTGC |  |  | binds |
